Experimental data from US20160244511A1 (published 2016).
Numbering of substitutions follows the chain as printed.

T1: LukF, F-component of Panton Valentine leukocidin (LukSF), USA300 TCH1516 strain (Staphylococcus aureus USA300 TCH1516)
T1 chain: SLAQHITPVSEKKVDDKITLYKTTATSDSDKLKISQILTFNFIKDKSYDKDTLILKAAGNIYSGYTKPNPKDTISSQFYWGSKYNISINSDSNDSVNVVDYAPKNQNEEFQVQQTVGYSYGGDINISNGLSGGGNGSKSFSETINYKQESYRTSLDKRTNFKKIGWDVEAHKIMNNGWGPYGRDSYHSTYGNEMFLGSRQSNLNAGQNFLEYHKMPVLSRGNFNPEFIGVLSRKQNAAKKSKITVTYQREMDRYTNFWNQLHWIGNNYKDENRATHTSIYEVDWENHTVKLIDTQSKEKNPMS

T2: LukD, F-component of LukED, USA300 TCH1516 strain (Staphylococcus aureus USA300 TCH1516, UniProt Q2FXB1 27-327)
T2 sequence: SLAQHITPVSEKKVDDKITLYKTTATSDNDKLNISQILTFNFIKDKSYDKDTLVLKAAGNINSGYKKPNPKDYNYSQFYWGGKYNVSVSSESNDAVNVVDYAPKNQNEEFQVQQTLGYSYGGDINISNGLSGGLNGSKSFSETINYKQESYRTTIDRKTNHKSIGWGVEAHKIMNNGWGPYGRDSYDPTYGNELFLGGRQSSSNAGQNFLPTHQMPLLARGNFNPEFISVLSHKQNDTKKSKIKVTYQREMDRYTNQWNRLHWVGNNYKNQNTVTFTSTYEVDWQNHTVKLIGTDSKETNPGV

T3: HlgB, F-component of gamma-hemolysin, USA300 TCH1516 strain (Staphylococcus aureus USA300 TCH1516, UniProt P0A075 26-325)
T3 sequence: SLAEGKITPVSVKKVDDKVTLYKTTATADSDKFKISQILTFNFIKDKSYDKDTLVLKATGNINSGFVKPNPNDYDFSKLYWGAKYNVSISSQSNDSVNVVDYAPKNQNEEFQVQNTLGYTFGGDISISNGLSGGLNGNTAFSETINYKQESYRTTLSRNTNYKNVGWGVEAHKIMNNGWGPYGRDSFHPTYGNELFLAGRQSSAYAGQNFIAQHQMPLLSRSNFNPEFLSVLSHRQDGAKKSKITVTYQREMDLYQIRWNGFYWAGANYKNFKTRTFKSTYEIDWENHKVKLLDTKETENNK

B1: AB-28 Fab fragment (Fab, V domains shown)
VH: QVQLQESGPGLVKPSETLSLTCAVSGYSISSGMGWGWIRQPPGKGLEWIGSIDQRGSTYYNPSLKSRVTISVDTSKNQFSLKLSSVTAADTAVYYCARDAGHGVDMDVWGKGTTVTVSS
VL: DIQMTQSPSSVSASVGDRVTITCRASQGISRWLAWYQQKPGKAPKLLIYAASSLQSGVPSRFSGSGSGTDFTLTISSLQPEDFATYYCQQGYVFPLTFGGGTKVEIK
B2: AB-28-7 Fab (Fab, V domains shown)
VH: B1 VH with G36D, L46R, K65E, S66G, V68A
VL: B1 VL
B3: AB-28-8 Fab (Fab, V domains shown)
VH: B1 VH with G36D, S63P, K65E
VL: B1 VL
B4: AB-28-9 Fab (Fab, V domains shown)
VH: B1 VH with Q1E, K13R, G103A
VL: B1 VL
B5: AB-28-3 Fab (Fab, V domains shown)
VH: B1 VH with I52V, V104A
VL: B1 VL
B6: AB-28-6 Fab (Fab, V domains shown)
VH: B1 VH with K13R, G103A
VL: B1 VL

Assays:
[1] = target: T1, LukF, F-component of Panton Valentine …; assay: MSD solution equilibrium, Fab with biotinylated antigen (or ForteBio)
[2] = target: T2, LukD, F-component of LukED, USA300 …; assay: as above
[3] = target: T3, HlgB, F-component of gamma-hemolysin, …; assay: as above
[4] = target: T1, LukF, F-component of Panton Valentine …; assay: MSD solution equilibrium, Fab with biotinylated antigen
[5] = target: T2, LukD, F-component of LukED, USA300 …; assay: as above
[6] = target: T3, HlgB, F-component of gamma-hemolysin, …; assay: as above

Binder | Kd [4] | Kd [5] | further results
B1 |  |  | Kd [1]: > 100 pM; Kd [2]: > 1000 pM; Kd [3]: < 10 pM
B2 | < 55 pM | < 800 pM | 
B3 | < 55 pM | < 800 pM | 
B4 | < 55 pM | < 800 pM | 
B5 |  |  | Kd [6]: < 20 pM
B6 | < 55 pM | < 800 pM | 
